Earlier results on one substance are cited in PMC3786701.

Broadly, the Kd is a measure of binding affinity in units of concentration.

For the series, the target named is SNARE complex (Rattus norvegicus) (UniProt P32851).
Sequence of UniProt P32851 (P32851 whole entry, chain 1 of 3): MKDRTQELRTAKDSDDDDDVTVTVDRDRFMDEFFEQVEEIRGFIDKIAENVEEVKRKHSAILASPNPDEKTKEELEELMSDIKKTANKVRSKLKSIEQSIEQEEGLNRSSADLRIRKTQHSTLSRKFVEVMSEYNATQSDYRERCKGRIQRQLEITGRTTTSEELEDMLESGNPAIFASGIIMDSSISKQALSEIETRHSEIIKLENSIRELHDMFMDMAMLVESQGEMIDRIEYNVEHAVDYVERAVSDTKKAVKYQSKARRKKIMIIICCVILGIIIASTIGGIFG
Sequence of UniProt P32851 (B2RAU4 whole entry, chain 2 of 3, further chain): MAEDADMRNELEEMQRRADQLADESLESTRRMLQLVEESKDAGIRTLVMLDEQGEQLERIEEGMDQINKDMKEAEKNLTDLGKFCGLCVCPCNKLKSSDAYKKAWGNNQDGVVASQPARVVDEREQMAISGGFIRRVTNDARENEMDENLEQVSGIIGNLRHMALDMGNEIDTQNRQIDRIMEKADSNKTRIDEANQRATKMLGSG
Sequence of UniProt P32851 (P63044 2-116, chain 3 of 3, further chain): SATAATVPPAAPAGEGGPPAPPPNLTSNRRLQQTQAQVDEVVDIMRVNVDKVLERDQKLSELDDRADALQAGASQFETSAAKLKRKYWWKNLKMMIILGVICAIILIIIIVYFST

Take “synaptotagmin-1 C2AB (from UniProt P21707)”: the Kd was 1000 nM.
